{
  "source": "patent US20260242735A1",
  "assay_in_all_cases": "alanine scan, flow cytometry, HEK293-T",
  "key": {"human CD33 A168S (human)": {"molecular_target": "human CD33 A168S (human) (UniProt P20138)"}, "human CD33 A65S (human)": {"molecular_target": "human CD33 A65S (human) (UniProt P20138)", "sequence (P20138 18-364 A65S limits assumed)": "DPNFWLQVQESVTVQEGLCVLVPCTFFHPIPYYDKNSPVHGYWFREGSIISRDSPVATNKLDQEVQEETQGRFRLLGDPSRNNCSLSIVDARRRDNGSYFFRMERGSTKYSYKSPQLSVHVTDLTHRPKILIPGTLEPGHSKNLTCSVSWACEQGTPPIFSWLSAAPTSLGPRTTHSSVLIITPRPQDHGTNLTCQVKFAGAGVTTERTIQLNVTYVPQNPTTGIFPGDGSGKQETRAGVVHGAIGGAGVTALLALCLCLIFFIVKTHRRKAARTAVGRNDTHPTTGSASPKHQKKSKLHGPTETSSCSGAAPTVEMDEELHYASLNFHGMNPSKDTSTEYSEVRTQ"}, "human CD33 C163A (human)": {"molecular_target": "human CD33 C163A (human) (UniProt P20138)", "sequence (P20138 18-364 C163A limits assumed)": "as the sequence (P20138 18-364 A65S limits assumed) above, with S48A, C146A counted along it"}, "human CD33 C169A (human)": {"molecular_target": "human CD33 C169A (human) (UniProt P20138)"}, "human CD33 D140A (human)": {"molecular_target": "human CD33 D140A (human) (UniProt P20138)"}, "human CD33 D70A (human)": {"molecular_target": "human CD33 D70A (human) (UniProt P20138)", "sequence (P20138 18-364 D70A limits assumed)": "as the sequence (P20138 18-364 A65S limits assumed) above, with S48A, D53A counted along it"}, "human CD33 D79A (human)": {"molecular_target": "human CD33 D79A (human) (UniProt P20138)"}, "human CD33 D95A (human)": {"molecular_target": "human CD33 D95A (human) (UniProt P20138)"}, "human CD33 E81A (human)": {"molecular_target": "human CD33 E81A (human) (UniProt P20138)", "sequence (P20138 18-364 E81A limits assumed)": "as the sequence (P20138 18-364 A65S limits assumed) above, with S48A, E64A counted along it"}, "human CD33 G172A (human)": {"molecular_target": "human CD33 G172A (human) (UniProt P20138)"}, "human CD33 H137A (human)": {"molecular_target": "human CD33 H137A (human) (UniProt P20138)", "sequence (P20138 18-364 H137A limits assumed)": "as the sequence (P20138 18-364 A65S limits assumed) above, with S48A, H120A counted along it"}, "human CD33 H157A (human)": {"molecular_target": "human CD33 H157A (human) (UniProt P20138)"}, "human CD33 I147A (human)": {"molecular_target": "human CD33 I147A (human) (UniProt P20138)"}, "human CD33 K126A (human)": {"molecular_target": "human CD33 K126A (human) (UniProt P20138)"}, "human CD33 K77A (human)": {"molecular_target": "human CD33 K77A (human) (UniProt P20138)"}, "human CD33 L103A (human)": {"molecular_target": "human CD33 L103A (human) (UniProt P20138)"}, "human CD33 L141A (human)": {"molecular_target": "human CD33 L141A (human) (UniProt P20138)"}, "human CD33 L153A (human)": {"molecular_target": "human CD33 L153A (human) (UniProt P20138)"}, "human CD33 M120A (human)": {"molecular_target": "human CD33 M120A (human) (UniProt P20138)"}, "human CD33 N100A (human)": {"molecular_target": "human CD33 N100A (human) (UniProt P20138)"}, "human CD33 N99A (human)": {"molecular_target": "human CD33 N99A (human) (UniProt P20138)", "sequence (P20138 18-364 N99A limits assumed)": "as the sequence (P20138 18-364 A65S limits assumed) above, with S48A, N82A counted along it"}, "human CD33 P174A (human)": {"molecular_target": "human CD33 P174A (human) (UniProt P20138)"}, "human CD33 P184A (human)": {"molecular_target": "human CD33 P184A (human) (UniProt P20138)"}, "human CD33 P72A (human)": {"molecular_target": "human CD33 P72A (human) (UniProt P20138)"}, "human CD33 Q133A (human)": {"molecular_target": "human CD33 Q133A (human) (UniProt P20138)"}, "human CD33 Q83A (human)": {"molecular_target": "human CD33 Q83A (human) (UniProt P20138)"}, "human CD33 Q87A (human)": {"molecular_target": "human CD33 Q87A (human) (UniProt P20138)", "sequence (P20138 18-364 Q87A limits assumed)": "as the sequence (P20138 18-364 A65S limits assumed) above, with S48A, Q70A counted along it"}, "human CD33 R111A (human)": {"molecular_target": "human CD33 R111A (human) (UniProt P20138)", "sequence (P20138 18-364 R111A limits assumed)": "as the sequence (P20138 18-364 A65S limits assumed) above, with S48A, R94A counted along it"}, "human CD33 R119A (human)": {"molecular_target": "human CD33 R119A (human) (UniProt P20138)"}, "human CD33 R190A (human)": {"molecular_target": "human CD33 R190A (human) (UniProt P20138)"}, "human CD33 R89A (human)": {"molecular_target": "human CD33 R89A (human) (UniProt P20138)", "sequence (P20138 18-364 R89A limits assumed)": "as the sequence (P20138 18-364 A65S limits assumed) above, with S48A, R72A counted along it"}, "human CD33 R91A (human)": {"molecular_target": "human CD33 R91A (human) (UniProt P20138)"}, "human CD33 S131A (human)": {"molecular_target": "human CD33 S131A (human) (UniProt P20138)", "sequence (P20138 18-364 S131A limits assumed)": "as the sequence (P20138 18-364 A65S limits assumed) above, with S48A, S114A counted along it"}, "human CD33 S158A (human)": {"molecular_target": "human CD33 S158A (human) (UniProt P20138)", "sequence (P20138 18-364 S158A limits assumed)": "as the sequence (P20138 18-364 A65S limits assumed) above, with S48A, S141A counted along it"}, "human CD33 S166A (human)": {"molecular_target": "human CD33 S166A (human) (UniProt P20138)"}, "human CD33 S178A (human)": {"molecular_target": "human CD33 S178A (human) (UniProt P20138)", "sequence (P20138 18-364 S178A limits assumed)": "as the sequence (P20138 18-364 A65S limits assumed) above, with S48A, S161A counted along it"}, "human CD33 S195A (human)": {"molecular_target": "human CD33 S195A (human) (UniProt P20138)", "sequence (P20138 18-364 S195A limits assumed)": "as the sequence (P20138 18-364 A65S limits assumed) above, with S48A, S178A counted along it"}, "human CD33 S68A (human)": {"molecular_target": "human CD33 S68A (human) (UniProt P20138)"}, "human CD33 T142A (human)": {"molecular_target": "human CD33 T142A (human) (UniProt P20138)"}, "human CD33 T173A (human)": {"molecular_target": "human CD33 T173A (human) (UniProt P20138)"}, "human CD33 T185A (human)": {"molecular_target": "human CD33 T185A (human) (UniProt P20138)"}, "human CD33 T192A (human)": {"molecular_target": "human CD33 T192A (human) (UniProt P20138)"}, "human CD33 T86A (human)": {"molecular_target": "human CD33 T86A (human) (UniProt P20138)"}, "human CD33 W179A (human)": {"molecular_target": "human CD33 W179A (human) (UniProt P20138)"}, "human CD33 Y116A (human)": {"molecular_target": "human CD33 Y116A (human) (UniProt P20138)", "sequence (P20138 18-364 Y116A limits assumed)": "as the sequence (P20138 18-364 A65S limits assumed) above, with S48A, Y99A counted along it"}},
  "data": [
    {"substance": "Refmab #7 (WM53) (antibody)", "values": [
      {"measurement": "Mean % WT Binding", "setting": "human CD33 A168S (human)", "result": 117, "unit": "% WT binding"},
      {"measurement": "Mean % WT Binding", "setting": "human CD33 A65S (human)", "result": 117, "unit": "% WT binding"},
      {"measurement": "Mean % WT Binding", "setting": "human CD33 C163A (human)", "result": 102, "unit": "% WT binding"},
      {"measurement": "Mean % WT Binding", "setting": "human CD33 C169A (human)", "result": 90, "unit": "% WT binding"},
      {"measurement": "Mean % WT Binding", "setting": "human CD33 D140A (human)", "result": 116, "unit": "% WT binding"},
      {"measurement": "Mean % WT Binding", "setting": "human CD33 D70A (human)", "result": 81.2, "unit": "% WT binding"},
      {"measurement": "Mean % WT Binding", "setting": "human CD33 D79A (human)", "result": 83.5, "unit": "% WT binding"},
      {"measurement": "Mean % WT Binding", "setting": "human CD33 D95A (human)", "result": 104, "unit": "% WT binding"},
      {"measurement": "Mean % WT Binding", "setting": "human CD33 E81A (human)", "result": 98.4, "unit": "% WT binding"},
      {"measurement": "Mean % WT Binding", "setting": "human CD33 G172A (human)", "result": 92.1, "unit": "% WT binding"},
      {"measurement": "Mean % WT Binding", "setting": "human CD33 H137A (human)", "result": 114, "unit": "% WT binding"},
      {"measurement": "Mean % WT Binding", "setting": "human CD33 H157A (human)", "result": 116, "unit": "% WT binding"},
      {"measurement": "Mean % WT Binding", "setting": "human CD33 I147A (human)", "result": 92, "unit": "% WT binding"},
      {"measurement": "Mean % WT Binding", "setting": "human CD33 K126A (human)", "result": 156, "unit": "% WT binding"},
      {"measurement": "Mean % WT Binding", "setting": "human CD33 K77A (human)", "result": 117, "unit": "% WT binding"},
      {"measurement": "Mean % WT Binding", "setting": "human CD33 L103A (human)", "result": 109, "unit": "% WT binding"},
      {"measurement": "Mean % WT Binding", "setting": "human CD33 L141A (human)", "result": 118, "unit": "% WT binding"},
      {"measurement": "Mean % WT Binding", "setting": "human CD33 L153A (human)", "result": 101, "unit": "% WT binding"},
      {"measurement": "Mean % WT Binding", "setting": "human CD33 M120A (human)", "result": 92, "unit": "% WT binding"},
      {"measurement": "Mean % WT Binding", "setting": "human CD33 N100A (human)", "result": 128, "unit": "% WT binding"},
      {"measurement": "Mean % WT Binding", "setting": "human CD33 N99A (human)", "result": 102, "unit": "% WT binding"},
      {"measurement": "Mean % WT Binding", "setting": "human CD33 P174A (human)", "result": 122, "unit": "% WT binding"},
      {"measurement": "Mean % WT Binding", "setting": "human CD33 P184A (human)", "result": 106, "unit": "% WT binding"},
      {"measurement": "Mean % WT Binding", "setting": "human CD33 P72A (human)", "result": 114, "unit": "% WT binding"},
      {"measurement": "Mean % WT Binding", "setting": "human CD33 Q133A (human)", "result": 100, "unit": "% WT binding"},
      {"measurement": "Mean % WT Binding", "setting": "human CD33 Q83A (human)", "result": 120, "unit": "% WT binding"},
      {"measurement": "Mean % WT Binding", "setting": "human CD33 Q87A (human)", "result": 90.1, "unit": "% WT binding"},
      {"measurement": "Mean % WT Binding", "setting": "human CD33 R111A (human)", "result": 94, "unit": "% WT binding"},
      {"measurement": "Mean % WT Binding", "setting": "human CD33 R119A (human)", "result": 116, "unit": "% WT binding"},
      {"measurement": "Mean % WT Binding", "setting": "human CD33 R190A (human)", "result": 123, "unit": "% WT binding"},
      {"measurement": "Mean % WT Binding", "setting": "human CD33 R89A (human)", "result": 94, "unit": "% WT binding"},
      {"measurement": "Mean % WT Binding", "setting": "human CD33 R91A (human)", "result": 114, "unit": "% WT binding"},
      {"measurement": "Mean % WT Binding", "setting": "human CD33 S131A (human)", "result": 114, "unit": "% WT binding"},
      {"measurement": "Mean % WT Binding", "setting": "human CD33 S158A (human)", "result": 113, "unit": "% WT binding"},
      {"measurement": "Mean % WT Binding", "setting": "human CD33 S166A (human)", "result": 108, "unit": "% WT binding"},
      {"measurement": "Mean % WT Binding", "setting": "human CD33 S178A (human)", "result": 106, "unit": "% WT binding"},
      {"measurement": "Mean % WT Binding", "setting": "human CD33 S195A (human)", "result": 117, "unit": "% WT binding"},
      {"measurement": "Mean % WT Binding", "setting": "human CD33 S68A (human)", "result": 120, "unit": "% WT binding"},
      {"measurement": "Mean % WT Binding", "setting": "human CD33 T142A (human)", "result": 113, "unit": "% WT binding"},
      {"measurement": "Mean % WT Binding", "setting": "human CD33 T173A (human)", "result": 103, "unit": "% WT binding"},
      {"measurement": "Mean % WT Binding", "setting": "human CD33 T185A (human)", "result": 106, "unit": "% WT binding"},
      {"measurement": "Mean % WT Binding", "setting": "human CD33 T192A (human)", "result": 102, "unit": "% WT binding"},
      {"measurement": "Mean % WT Binding", "setting": "human CD33 T86A (human)", "result": 111, "unit": "% WT binding"},
      {"measurement": "Mean % WT Binding", "setting": "human CD33 W179A (human)", "result": 111, "unit": "% WT binding"},
      {"measurement": "Mean % WT Binding", "setting": "human CD33 Y116A (human)", "result": 1.7, "unit": "% WT binding"}
    ]}
  ]
}
